In PMC9040794, “The Plant Defense Signal Salicylic Acid Activates the RpfB-Dependent Quorum Sensing Signal Turnover via Altering the Culture and Cytoplasmic pH in the Phytopathogen Xanthomonas campestris” (mBio, 2022):

Tested on: CC(C)CCCCCCC/C=C\C(=O)O
Assay: purified protein
Settings: pH 7.0 phosphate (standard of pH 6, 7, 8 tested); co-substrates 5 mM ATP, 0.5 mM CoA; 10 mM MgCl2, 2 mM EDTA, 0.1% Triton X-100; 37°C in b48 (28°C elsewhere in the source)

Substance: RpfB (Xanthomonas campestris pv. campestris str. ATCC 33913)
- Km: 6.5 µM
